Among the data in patent publication US20090162390A1 are neutralization IC50 (JC53bl-13 HIV entry assay) values, retold here.

What all share (assay): cell-based or functional assay
The target in test [1] is HIV-1 env glycoprotein (YU2) (HIV-1 (YU2)) (UniProt P35961).
The target in test [2] is HIV-2 7312A envelope with site-directed substitutions at 675 (L to I) and 676 (A to T) (HXB2 numbering) (HIV-2 (isolate 7312A)).
Test [3] has as its target HIV-2 ST envelope polypeptide (wild-type) (HIV-2 (strain ST)) (UniProt P20872).
Test [4] concerns the target HIV-2 UC1 envelope polypeptide (wild-type) (HIV-2 (strain UC1)) (UniProt Q76638).
For test [5], the target named is HIV-2 strain 7312A envelope polypeptide (wild-type) (HIV-2 (isolate 7312A)).
Test [6] addresses HIV-2 7312A envelope with site-directed mutations 660 (K to A), 662 (N to D), 663 (S to K) and 665 (D to A) of SEQ ID NO:2 (HIV-2 (isolate 7312A)).

For the substance 4E10 monoclonal antibody, the neutralization IC50 (JC53bl-13 HIV entry assay) in test [1] was 25 mg/L; in test [2], 0.8 mg/L; in test [3] it was 0.1 mg/L; in test [4], 1.2 mg/L; in test [5], > 50 mg/L.

As for 2F5 monoclonal antibody, the neutralization IC50 (JC53bl-13 HIV entry assay) is 25 mg/L in test [1], < 0.1 mg/L in test [6] and > 50 mg/L in test [5].

Regarding b12 monoclonal antibody, the neutralization IC50 (JC53bl-13 HIV entry assay) in test [1] was 3 mg/L; in test [5], > 50 mg/L.
